In paper doi:10.1101/783266:

Tests used:
Assay in all cases: BLI
[1] = molecular target: LRX5^ΔE-FLAG (Arabidopsis thaliana) (UniProt Q9SN46)
[2] = molecular target: LRX4^ΔE-FLAG (Arabidopsis thaliana) (UniProt Q9LHF1)
[3] = molecular target: LRX1^ΔE-FLAG (Arabidopsis thaliana) (UniProt O65375)

Measured: Kd

Sequence of UniProt Q9SN46 (Q9SN46 32-857, stated change not applied): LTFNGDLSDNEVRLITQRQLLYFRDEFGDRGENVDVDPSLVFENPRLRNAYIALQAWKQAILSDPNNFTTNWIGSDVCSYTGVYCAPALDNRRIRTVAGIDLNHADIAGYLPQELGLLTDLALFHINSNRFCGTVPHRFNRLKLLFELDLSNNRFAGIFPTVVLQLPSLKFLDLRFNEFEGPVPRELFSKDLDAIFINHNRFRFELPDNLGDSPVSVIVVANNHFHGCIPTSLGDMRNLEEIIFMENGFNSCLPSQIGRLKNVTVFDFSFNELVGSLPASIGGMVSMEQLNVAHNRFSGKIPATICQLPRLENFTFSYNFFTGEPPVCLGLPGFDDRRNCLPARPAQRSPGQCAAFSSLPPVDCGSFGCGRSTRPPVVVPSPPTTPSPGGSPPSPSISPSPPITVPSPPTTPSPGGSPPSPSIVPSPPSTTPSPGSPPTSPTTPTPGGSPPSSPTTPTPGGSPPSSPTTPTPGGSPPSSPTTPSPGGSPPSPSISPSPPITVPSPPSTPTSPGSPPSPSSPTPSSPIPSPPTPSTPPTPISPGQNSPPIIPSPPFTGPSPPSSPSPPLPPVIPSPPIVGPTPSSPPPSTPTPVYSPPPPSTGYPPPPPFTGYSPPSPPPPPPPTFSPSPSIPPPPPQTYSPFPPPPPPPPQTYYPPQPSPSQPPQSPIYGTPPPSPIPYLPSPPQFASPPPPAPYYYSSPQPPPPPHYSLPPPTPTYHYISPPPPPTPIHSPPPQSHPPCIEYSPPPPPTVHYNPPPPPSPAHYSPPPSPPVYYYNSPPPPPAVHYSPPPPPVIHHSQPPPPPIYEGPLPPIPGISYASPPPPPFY
Sequence of UniProt O65375 (O65375 27-744, stated change not applied): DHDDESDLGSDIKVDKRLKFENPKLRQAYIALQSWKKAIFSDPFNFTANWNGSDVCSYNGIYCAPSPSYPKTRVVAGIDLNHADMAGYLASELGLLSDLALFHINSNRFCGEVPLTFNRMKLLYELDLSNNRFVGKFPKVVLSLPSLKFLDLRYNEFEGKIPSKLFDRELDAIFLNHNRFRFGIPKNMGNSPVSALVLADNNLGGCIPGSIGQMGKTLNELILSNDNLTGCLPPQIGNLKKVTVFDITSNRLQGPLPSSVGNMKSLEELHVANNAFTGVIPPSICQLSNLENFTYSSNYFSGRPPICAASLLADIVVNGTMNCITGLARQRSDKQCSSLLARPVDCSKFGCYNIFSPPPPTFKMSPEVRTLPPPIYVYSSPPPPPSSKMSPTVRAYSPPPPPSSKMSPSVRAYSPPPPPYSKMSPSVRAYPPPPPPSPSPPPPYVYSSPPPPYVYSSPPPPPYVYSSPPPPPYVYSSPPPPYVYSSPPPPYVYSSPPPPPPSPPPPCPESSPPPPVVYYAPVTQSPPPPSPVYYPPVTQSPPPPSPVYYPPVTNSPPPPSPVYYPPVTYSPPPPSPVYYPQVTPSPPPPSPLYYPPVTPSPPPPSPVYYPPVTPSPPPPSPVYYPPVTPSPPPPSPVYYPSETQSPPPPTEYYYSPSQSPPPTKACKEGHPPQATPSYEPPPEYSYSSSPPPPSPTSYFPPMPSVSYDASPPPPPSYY
Sequence of UniProt Q9LHF1 (Q9LHF1 26-494, stated change not applied): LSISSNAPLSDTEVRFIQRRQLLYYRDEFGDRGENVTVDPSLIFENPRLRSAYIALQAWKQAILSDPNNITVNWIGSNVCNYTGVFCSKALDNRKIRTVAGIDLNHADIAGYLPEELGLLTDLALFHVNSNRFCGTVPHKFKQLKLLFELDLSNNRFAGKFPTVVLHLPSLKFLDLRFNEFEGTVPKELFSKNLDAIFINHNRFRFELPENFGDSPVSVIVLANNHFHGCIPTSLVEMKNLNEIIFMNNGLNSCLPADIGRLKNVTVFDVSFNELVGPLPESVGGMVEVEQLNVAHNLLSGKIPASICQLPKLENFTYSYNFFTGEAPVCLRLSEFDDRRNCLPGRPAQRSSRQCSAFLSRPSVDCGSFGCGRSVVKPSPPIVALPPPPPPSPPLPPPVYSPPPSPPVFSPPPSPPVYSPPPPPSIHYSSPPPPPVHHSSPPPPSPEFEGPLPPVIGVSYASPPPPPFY

B1: RALF1, in vitro synthesized peptide (peptide)
peptide: ATTKYISYQSLKRNSVPCSRRGASYYNCQNGAQANPYSRGCSKIARCRS
5 nM: all assays above
